Reference: article PMC12360793 (2025)
Where two headings read alike, the source gives them in different places.

Legend:
Test in all cases: BLI
[1] = biological target: T1, PnNL2018B S1-hFc (PnNL2018B (bat MERSr-CoV sampled in …))
[2] = biological target: T1, PnNL2018B S1-hFc; remark: listed apart in the source
[3] = biological target: T2, biotinylated monomeric MOW15–22 RBD (MOW15–22 (bat MERSr-CoV sampled in …))
[4] = biological target: T2, biotinylated monomeric MOW15–22 RBD; remark: listed apart in the source

B1: soluble dimeric P.nat ACE2 ectodomain (residues 18–739, twin-strep-3×FLAG) (domain or fragment)
chain: QSLTTEEKAREFLDKFNSEAENWSHESALASWDYNTNINDKNAQKMNEADSKWSAFYKEHSKLAQGFPLQEIQNSTIKLQLQILQQNGSSVLTAEKSKRLSTILTTMSTIYSTGKVCNPNNPQQCFTLSGLEDIMEKSKDYHQRLWIWEGWRSEVGKQLRPLYEEYVALKNEMARGNNYKDYGDYWRGDYETEGGDGYNYSRNHLIEDVDRIFLEIKPLYEQLHAYVRAKLMNAYPSRISPTGCLPAHLLGDMWGRFWTNLYNLTVPFEKKQNIDVTDTMKKQSWDAEKIFKEAEKFYLSVGLHNMTPEFWNNSMLTEPSDGRQVVCHPTAWDLGKNDFRIKMCTKVTMDDFLTAHHEMGHIQYDMAYAKQPYLLRNGANEGFHEAVGEVMSLSVATPKHLKGMGLLPSNFSEDCETEINFLLKQALNIVGTLPFTYMLEKWRWMVFEGKIPKEQWMEKWWEMKREIVGVVEPLPHDETYCDPASLFHVANDYSFIRYFTRTILEFQFQEALCQIANHTGPLHKCDISNSTEAGKQLKNMLELGKSKPWTFALEQIARTKEMDAKPLLNYFKPLFSWLKEQNGNSVGWSADWSPYSEQSIKVRISLKSALGEKAYEWNDNEMYLFRSSVAYAMRVYFLKVKNETIPFRAEDVWVSDEKIRVSFKFFVTSPTNVSDIIPRSEVEDAIRMSRGRINDAFRLDDKTLEFLGIQPTLGPPYQPPVT
- Kd [1]: 183 nM
- koff [1]: 0.00727 s⁻¹

B2: soluble dimeric P.nat.M1 ACE2 ectodomain (twin-strep-3×FLAG) (domain or fragment)
chain: QSLTTEEKAREFLDKFNSEAENWSHESALASWDYNTNINDKNAQKMNEADSKWSAFYKEHSKLAQGFPLQEIQNSTIKLQLQILQQNGSSVLTAEKSKRLSTILTTMSTIYSTGKVCNPNNPQQCFTLSGLEDIMEKSKDYHQRLWIWEGWRSEVGKQLRPLYEEYVALKNEMARGNNYKDYGDYWRGDYETEGGDGYNYSRNHLIEDVDRIFLEIKPLYEQLHAYVRAKLMNAYPSRISPTGCLPAHLLGDMWGRFWTNLYNLTVPFEKKQNIDVTDTMKKQSWDAEKIFKEAEKFYLSVGLHNMTPEFWNNSMLTEPSDGRQVVCHPTAWDLGKNDFRIKMCTKVTMDDFLTAHHEMGHIQYDMAYAKQPYLLRNGANEGFHEAVGEIMSLSAATPKHLKDLGLLAQNYPEDYETEINFLLKQALNIVGTLPFTYMLEKWRWMVFEGKIPKEQWMEKWWEMKREIVGVVEPLPHDETYCDPASLFHVANDYSFIRYFTRTILEFQFQEALCQIANHTGPLHKCDISNSTEAGKQLKNMLELGKSKPWTFALEQIARTKEMDAKPLLNYFKPLFSWLKEQNGNSVGWSADWSPYSEQSIKVRISLKSALGEKAYEWNDNEMYLFRSSVAYAMRVYFLKVKNETIPFRAEDVWVSDEKIRVSFKFFVTSPTNVSDIIPRSEVEDAIRMSRGRINDAFRLDDKTLEFLGIQPTLGPPYQPPVT
- Kd [2]: 16.9 nM
- koff [2]: 0.00179 s⁻¹

B3: dimeric P.dav ACE2 ectodomain (residues 17–728, avi-His8) (domain or fragment)
chain: AQSTTEELAKTFLEKFNHEAEELSYQSSLASWNYNTNITDENVQKMNEAGAKWSAFYEEQSKLAKTYPLAEIHNTTVKRQLQALQQSGSSVLSADKSQRLNTILNAMSTIYSTGKACNPNNPQECLLLEPGLDDIMENSKDYNERLWAWEGWRAEVGKQLRPLYEEYVALKNEMARANNYEDYGDYWRGDYEEEWTDGYNYSRSQLIKDVEHTFTQIKPLYQHLHAYVRAKLMDTYPSRISPTGCLPAHLLGDMWGRFWTNLYPLTVPFGQKPNIDVTDAMVNQSWDARRIFKEAEKFFVSVGLPNMTQGFWENSMLTEPGDSRKVVCHPTAWDLGKGDFRIKMCTKVTMDDFLTAHHEMGHIQYDMAYAVQPFLLRNGANEGFHEAVGEIMSLSAATPNHLKTIGLLSPGFSEDSETEINFLLKQALTIVGTLPFTYMLEKWRWMVFKGEIPKEQWMQKWWEMKREIVGVVEPVPHDETYCDPASLFHVANDYSFIRYYTRTIYQFQFQEALCRIAKHEGPLHKCDISNSSEAGKKLLQMLTLGKSKPWTLALEHVVGEKKMNVTPLLKYFEPLFTWLKEQNRNSFVGWNTDWRPYADQSIKVRISLKSALGDEAYEWNDNEMYLFRSSVAYAMREYFSKVKNQTIPFVEDNVWVSNLKPRISFNFFVTASKNVSDVIPRSEVEEAIRMSRSRINDAFRLDDNSLEFLGIQ
- koff [3]: 0.000712 s⁻¹

B4: monomeric P.dav ACE2 ectodomain (residues 17–613, avi-His8) (domain or fragment)
chain: AQSTTEELAKTFLEKFNHEAEELSYQSSLASWNYNTNITDENVQKMNEAGAKWSAFYEEQSKLAKTYPLAEIHNTTVKRQLQALQQSGSSVLSADKSQRLNTILNAMSTIYSTGKACNPNNPQECLLLEPGLDDIMENSKDYNERLWAWEGWRAEVGKQLRPLYEEYVALKNEMARANNYEDYGDYWRGDYEEEWTDGYNYSRSQLIKDVEHTFTQIKPLYQHLHAYVRAKLMDTYPSRISPTGCLPAHLLGDMWGRFWTNLYPLTVPFGQKPNIDVTDAMVNQSWDARRIFKEAEKFFVSVGLPNMTQGFWENSMLTEPGDSRKVVCHPTAWDLGKGDFRIKMCTKVTMDDFLTAHHEMGHIQYDMAYAVQPFLLRNGANEGFHEAVGEIMSLSAATPNHLKTIGLLSPGFSEDSETEINFLLKQALTIVGTLPFTYMLEKWRWMVFKGEIPKEQWMQKWWEMKREIVGVVEPVPHDETYCDPASLFHVANDYSFIRYYTRTIYQFQFQEALCRIAKHEGPLHKCDISNSSEAGKKLLQMLTLGKSKPWTLALEHVVGEKKMNVTPLLKYFEPLFTWLKEQNRNSFVGWNTDWRPY
- koff [3]: 0.0567 s⁻¹

B5: dimeric P.nat ACE2 ectodomain (residues 17–729, avi-His8) (domain or fragment)
chain: AQSLTTEEKAREFLDKFNSEAENWSHESALASWDYNTNINDKNAQKMNEADSKWSAFYKEHSKLAQGFPLQEIQNSTIKLQLQILQQNGSSVLTAEKSKRLSTILTTMSTIYSTGKVCNPNNPQQCFTLSGLEDIMEKSKDYHQRLWIWEGWRSEVGKQLRPLYEEYVALKNEMARGNNYKDYGDYWRGDYETEGGDGYNYSRNHLIEDVDRIFLEIKPLYEQLHAYVRAKLMNAYPSRISPTGCLPAHLLGDMWGRFWTNLYNLTVPFEKKQNIDVTDTMKKQSWDAEKIFKEAEKFYLSVGLHNMTPEFWNNSMLTEPSDGRQVVCHPTAWDLGKNDFRIKMCTKVTMDDFLTAHHEMGHIQYDMAYAKQPYLLRNGANEGFHEAVGEVMSLSVATPKHLKGMGLLPSNFSEDCETEINFLLKQALNIVGTLPFTYMLEKWRWMVFEGKIPKEQWMEKWWEMKREIVGVVEPLPHDETYCDPASLFHVANDYSFIRYFTRTILEFQFQEALCQIANHTGPLHKCDISNSTEAGKQLKNMLELGKSKPWTFALEQIARTKEMDAKPLLNYFKPLFSWLKEQNGNSVGWSADWSPYSEQSIKVRISLKSALGEKAYEWNDNEMYLFRSSVAYAMRVYFLKVKNETIPFRAEDVWVSDEKIRVSFKFFVTSPTNVSDIIPRSEVEDAIRMSRGRINDAFRLDDKTLEFLGIQPT
- koff [4]: 0.000301 s⁻¹
